Test results published in the Human Domainome abundance scans (Beltran et al. 2025).
± gives the uncertainty stated by the source.

B1: CD2-associated protein, residues 109 to 169; numbered along this chain, Q9Y5K6 (parent)
chain: KKRQCKVLFEYIPQNEDELELKVGDIIDINEEVEEGWWSGTLNNKLGLFPSNFVKELEVTD

Variants of: B1
Test: abundance fitness (aPCA) (normalised: wild type 0, dead -1); higher = more abundant; growth selection in yeast, the domain comes from the species named
Conditions: Homo sapiens

KKRQCKVLFEYIPQNEDELELKVGRIIDINEEVEEGWWSGTLNNKLGLFPSNFVKELEVTD [D25R] and KKRQCKVLFEYIPQNEDELELKVGPIIDINEEVEEGWWSGTLNNKLGLFPSNFVKELEVTD [D25P] are within error of each other in abundance fitness: -0.484 ± 0.22 for the first, -0.401 ± 0.19 for the second.

Going from KKRQCKVLFEYIPQNEDELELKQGDIIDINEEVEEGWWSGTLNNKLGLFPSNFVKELEVTD [V23Q] to KKRQCKVLFEYIPQNEDELELKFGDIIDINEEVEEGWWSGTLNNKLGLFPSNFVKELEVTD [V23F], the abundance fitness falls from -0.071 ± 0.17 to -0.687 ± 0.33.

KKRQCKVLFEYIPQNEDELELKVGDIIDINEEVTEGWWSGTLNNKLGLFPSNFVKELEVTD [E34T] and KKRQCKVLFEYIPQNEDELELKVGDIIDINEEVVEGWWSGTLNNKLGLFPSNFVKELEVTD [E34V] are within error of each other in abundance fitness: 0.008 ± 0.11 for the first, -0.05 ± 0.13 for the second.

KKRQCKVLFEYIPQNEDELELKVSDIIDINEEVEEGWWSGTLNNKLGLFPSNFVKELEVTD [G24S] and KKRQCKVLFEYIPQNEDELELKVLDIIDINEEVEEGWWSGTLNNKLGLFPSNFVKELEVTD [G24L] are within error of each other in abundance fitness: -0.611 ± 0.17 for the first, -0.781 ± 0.22 for the second.

KKRQCKVLFEYIPQNEDELELKVGDIIDINEEVEEGWWSGTLNNKLGLFPSNFVKELFVTD [E58F] and KKRQCKVLFEYIPQNEDELELKVGDIIDINEEVEEGWWSGTLNNKLGLFPSNFVKELTVTD [E58T] are within error of each other in abundance fitness: -0.207 ± 0.15 for the first, -0.211 ± 0.18 for the second.

KKRQCKVLFEYIPQNEDELELKVGDIIDINEEVEEGWWSGTLNNKLGLFPSNFVKELLVTD [E58L] and KKRQCKVLFEYIPQNEDELELKVGDIIDINEEVEEGWWSGTLNNKLGLFPSNFVKELIVTD [E58I] are within error of each other in abundance fitness: -0.062 ± 0.081 for the first, -0.23 ± 0.26 for the second.

Compared with KKRQCKVLFLYIPQNEDELELKVGDIIDINEEVEEGWWSGTLNNKLGLFPSNFVKELEVTD [E10L], KKRQCKVLFEYIPQNEDELELKVGDIIDINEEVEPGWWSGTLNNKLGLFPSNFVKELEVTD [E35P] is higher in abundance fitness: -0.841 ± 0.16 for the first, -0.139 ± 0.22 for the second.

Compared with KKRQCKVLFEYIPQNEDELELKVGDIIDINEEVEKGWWSGTLNNKLGLFPSNFVKELEVTD [E35K], KKRQCKVLFEFIPQNEDELELKVGDIIDINEEVEEGWWSGTLNNKLGLFPSNFVKELEVTD [Y11F] is lower in abundance fitness: -0.352 ± 0.17 for the first, -0.767 ± 0.17 for the second.

KKRQCKLLFEYIPQNEDELELKVGDIIDINEEVEEGWWSGTLNNKLGLFPSNFVKELEVTD [V7L] and KKRQCKDLFEYIPQNEDELELKVGDIIDINEEVEEGWWSGTLNNKLGLFPSNFVKELEVTD [V7D] are within error of each other in abundance fitness: -0.542 ± 0.14 for the first, -0.748 ± 0.39 for the second.

KKRQCKFLFEYIPQNEDELELKVGDIIDINEEVEEGWWSGTLNNKLGLFPSNFVKELEVTD [V7F] and KKRQCKVLFEYIPQPEDELELKVGDIIDINEEVEEGWWSGTLNNKLGLFPSNFVKELEVTD [N15P] are within error of each other in abundance fitness: -0.826 ± 0.38 for the first, -0.639 ± 0.17 for the second.

KKRQCKVLFEYIPQAEDELELKVGDIIDINEEVEEGWWSGTLNNKLGLFPSNFVKELEVTD [N15A] and KKRQCKVLFEYIPQEEDELELKVGDIIDINEEVEEGWWSGTLNNKLGLFPSNFVKELEVTD [N15E] are within error of each other in abundance fitness: 0.041 ± 0.14 for the first, -0.275 ± 0.21 for the second.

KKRQCKVLFEYIPQQEDELELKVGDIIDINEEVEEGWWSGTLNNKLGLFPSNFVKELEVTD [N15Q] and KKRQCKVLFEYIPQCEDELELKVGDIIDINEEVEEGWWSGTLNNKLGLFPSNFVKELEVTD [N15C] are within error of each other in abundance fitness: -0.26 ± 0.13 for the first, -0.3 ± 0.13 for the second.

KKRQCKVLFEYIPQNEDELELKVGDIIDINEEVEEGWRSGTLNNKLGLFPSNFVKELEVTD [W38R] and KKRQCKVLFEYIPQNEDELELKVGDIIDINEEVEEGWWSGTLNNKLFLFPSNFVKELEVTD [G47F] are within error of each other in abundance fitness: -0.586 ± 0.11 for the first, -0.784 ± 0.28 for the second.

First: KKRQCKVLFEYIPQNEDELELKVGDIIDINEEVEEGWWSGTLNNKLMLFPSNFVKELEVTD [G47M]
Second: KKRQCKVLFEYIPQNEDELELKVGDIIDINEEVEEGWWSGTLNNTLGLFPSNFVKELEVTD [K45T]
The abundance fitness of the first is lower: -1.21 ± 0.4 for the first, -0.458 ± 0.21 for the second.

Going from KKRQYKVLFEYIPQNEDELELKVGDIIDINEEVEEGWWSGTLNNKLGLFPSNFVKELEVTD [C5Y] to KKRQHKVLFEYIPQNEDELELKVGDIIDINEEVEEGWWSGTLNNKLGLFPSNFVKELEVTD [C5H], the abundance fitness falls from -0.097 ± 0.07 to -1.01 ± 0.21.

KKRQCKVLFEYIPQNRDELELKVGDIIDINEEVEEGWWSGTLNNKLGLFPSNFVKELEVTD [E16R] and KKRQCKVLFEYIPQNEDELELKVGDIIDINEEVEEGWWSGTLNNKLGLFPSNFVKELETTD [V59T] are within error of each other in abundance fitness: 0.017 ± 0.14 for the first, 0.01 ± 0.1 for the second.

KKRQCKVLFEYIPQNEDELELKVGDIIDINEEVEEGWWSGTLNNKLGLFPSNFVKELEPTD [V59P] and KKRQCKVLFEYIPQNEDGLELKVGDIIDINEEVEEGWWSGTLNNKLGLFPSNFVKELEVTD [E18G] are within error of each other in abundance fitness: -0.138 ± 0.14 for the first, -0.439 ± 0.21 for the second.

KKRQCKVLFEYIPQNEDSLELKVGDIIDINEEVEEGWWSGTLNNKLGLFPSNFVKELEVTD [E18S] and KKRQCKVLFEYIPQNEDELELKVGDISDINEEVEEGWWSGTLNNKLGLFPSNFVKELEVTD [I27S] are within error of each other in abundance fitness: -0.808 ± 0.2 for the first, -0.641 ± 0.2 for the second.

KKRQCKVLFEYIPQNEDELELKVGDIIFINEEVEEGWWSGTLNNKLGLFPSNFVKELEVTD [D28F] and KKRQCKVLFEYIPQNEDELELKVGDIIYINEEVEEGWWSGTLNNKLGLFPSNFVKELEVTD [D28Y] are within error of each other in abundance fitness: -0.335 ± 0.19 for the first, -0.271 ± 0.16 for the second.

KKRQCKVLFEYIPQNEDELELKVGDIICINEEVEEGWWSGTLNNKLGLFPSNFVKELEVTD [D28C] and KKRQCKVLFEYIPQNEDELELKVGDIIDVNEEVEEGWWSGTLNNKLGLFPSNFVKELEVTD [I29V] are within error of each other in abundance fitness: -0.264 ± 0.25 for the first, 0.085 ± 0.35 for the second.

KKRQCKVLEEYIPQNEDELELKVGDIIDINEEVEEGWWSGTLNNKLGLFPSNFVKELEVTD [F9E] and KKRQCKVLDEYIPQNEDELELKVGDIIDINEEVEEGWWSGTLNNKLGLFPSNFVKELEVTD [F9D] are within error of each other in abundance fitness: 0.173 ± 0.13 for the first, -0.097 ± 0.17 for the second.

KKRQCKVLCEYIPQNEDELELKVGDIIDINEEVEEGWWSGTLNNKLGLFPSNFVKELEVTD [F9C] gave an abundance fitness of -0.303 ± 0.22.
